The supplement of paper PMC10724198
± gives the standard deviation of the averaged measurements.

system: Saccharomyces cerevisiae; assay: protein stability index of tFT-peptide fusion (C-terminal peptide) (PSI (0-1 scale)); higher = more stable (slower turnover); conditions: genetic background: wild type; temperature: 30 C
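Also: PSI is a weighted mean of sequencing reads over stability bins, variants kept only with over 10 reads, mCherry proximal and sfGFP distal, peptide attached via GGGS linker.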

Sequence | protein stability index
VSLCYGGGFWGR | 0.698 ± 0.018
VSLFETIPVLSR | 0.605 ± 0.014
VSLLIPVGVYPR | 0.667 ± 0.015
VSLPGTWSSLSA | 0.6554 ± 0.0064
VSNVSGKEYINV | 0.681 ± 0.038
VSPAPSAILRLD | 0.6765 ± 0.0025
VSPDVYGVCLRL | 0.703 ± 0.081
VSPLDSPASLYS | 0.6573 ± 0.0062
VSPPLHFLPLHF | 0.6661 ± 0.004
VSRGGVAYGRVG | 0.742 ± 0.049
VSRQHLPAVLHL | 0.661 ± 0.024
VSSSQPGEYNIG | 0.7088 ± 0.0029
VSSSSPSNFIPL | 0.666 ± 0.093
VSTENDGCGTPR | 0.712 ± 0.022
VSVGWWVGFWGV | 0.6968 ± 0.0051
VSVRLWSGQSAG | 0.672 ± 0.11
VSWFVGFCLWFP | 0.5506 ± 0.0025
VTDSRAIMARRV | 0.645 ± 0.083
VTEWGVKWWEDR | 0.714 ± 0.11
VTKAALADLRHM | 0.609 ± 0.016
VTLFGVFQGFVG | 0.709 ± 0.02
VTLGQNGVSLRS | 0.596 ± 0.071
VVAIGRVWGERA | 0.68 ± 0.059
VVATRYGGCFRR | 0.669 ± 0.04
VVCKVLVTGIFD | 0.604 ± 0.0062

Sequence | protein stability index
VVDGSILTIRCL | 0.6226 ± 0.0048
VVDPDVIGREIR | 0.706 ± 0.014
VVECGERWWCLT | 0.705 ± 0.032
VVEGVFGQRFAG | 0.701 ± 0.033
VVFKPHEVRTSD | 0.717 ± 0.054
VVGAGTEWMVEV | 0.642 ± 0.025
VVGAWGRGGCGG | 0.633 ± 0.01
VVGGRWVVWSFK | 0.688 ± 0.018
VVGQGYDSGIRY | 0.724 ± 0.024
VVGRGGLICGRW | 0.625 ± 0.072
VVGSVQQSSDSC | 0.692 ± 0.07
VVIPLDKGVIVQ | 0.56 ± 0.014
VVKEGGGCREGR | 0.64 ± 0.028
VVKGGGLGRRAG | 0.66 ± 0.089
VVLFGAGGSWGG | 0.726 ± 0.063
VVMTAVEGMWDG | 0.5914 ± 0.0059
VVPLTPPLSAPR | 0.68 ± 0.031
VVPSMFPGAEVL | 0.691 ± 0.026
VVSFDPLFPSPR | 0.706 ± 0.037
VVSSSMGCCFRG | 0.659 ± 0.076
VVVGVGGCVYMG | 0.702 ± 0.06
VVVLCLFFSFFL | 0.5872 ± 0.0011
VVVSGGGEGFWL | 0.745 ± 0.027
VVWVCVRLPVRR | 0.53046 ± 0.00025
VVYGVSHEETST | 0.622 ± 0.018

Sequence | protein stability index
VWAREGLGLRPP | 0.673 ± 0.11
VWDQTKKKKIKK | 0.704 ± 0.014
VWFSFGCGFFGR | 0.659 ± 0.061
VWGGVICFGLWM | 0.579 ± 0.02
VWGVFASPVVYR | 0.712 ± 0.049
VWGWGAWGGCGG | 0.719 ± 0.067
VWLFAESFCGCV | 0.597 ± 0.036
VWLGGGVRLGRL | 0.738 ± 0.059
VWLGTGGSYGFC | 0.825 ± 0.16
VWRSAMIRVPPC | 0.608 ± 0.054
VWVAGGVLWVLG | 0.5433 ± 0.0042
VWVSHPWYMAFL | 0.618 ± 0.066
VYGIAPPTRCFS | 0.649 ± 0.024
VYKRNILHLASE | 0.681 ± 0.13
VYLSSSLFPPSS | 0.804 ± 0.042
VYLTGRCRRCLR | 0.702 ± 0.05
VYMDKKNKCIMK | 0.795 ± 0.15
VYRRWIKGKGRV | 0.675 ± 0.026
VYSPVEHLLATF | 0.59 ± 0.1
VYSRESMTGPVK | 0.7 ± 0.059
WAARLDISQSPI | 0.754 ± 0.011
WAERESLNGLSA | 0.718 ± 0.027
WAFGSTVSSGIV | 0.689 ± 0.017
WAGGFGGLGRDT | 0.744 ± 0.0089
WAGGGRVDDGGG | 0.643 ± 0.059

Sequence | protein stability index
WAGLAQPKLVLH | 0.659 ± 0.024
WAPHLPQPSRCS | 0.743 ± 0.062
WARDLGAVAVQT | 0.518 ± 0.075
WAVGLNPSGLGT | 0.651 ± 0.063
WCMMSWMSQFRP | 0.653 ± 0.015
WCPGVSGVAGVF | 0.703 ± 0.056
WCPVHGSGGAPL | 0.674 ± 0.026
WCVCTFGGCDFP | 0.641 ± 0.012
WCVEGRATGRGW | 0.674 ± 0.018
WCVRWGVVGPGL | 0.634 ± 0.03
WDGAGGGFGLVV | 0.726 ± 0.061
WDGGPTRSGGTG | 0.711 ± 0.013
WDNGQVRLLRYV | 0.593 ± 0.015
WEACLGRPEAGM | 0.724 ± 0.064
WEEKLEGTPTGG | 0.72 ± 0.072
WELVYLASLVQQ | 0.666 ± 0.055
WEVGVGRQDVEW | 0.7448 ± 0.0065
WFDGGGWLLFVV | 0.557 ± 0.011
WFDWLAIAFYLT | 0.526 ± 0.014
WFFVADVFKSWL | 0.704 ± 0.039
WFRPPSVPEEEY | 0.728 ± 0.048
WFSCYSGQSSNF | 0.757 ± 0.11
WFSGFLGEFNRF | 0.706 ± 0.063
WFVVRGGLSPGG | 0.695 ± 0.038
WGAGRGGAFFSG | 0.6576 ± 0.0062

Sequence | protein stability index
WGCCRPERNCAV | 0.702 ± 0.02
WGFLCVALGRWV | 0.644 ± 0.038
WGGAGGGSGYGR | 0.68 ± 0.064
WGGCALEQGGAV | 0.736 ± 0.025
WGGFGLGVCAKC | 0.616 ± 0.072
WGGGGGGGPAGV | 0.6659 ± 0.0021
WGGGGLRVSCGT | 0.687 ± 0.093
WGGGGVLEVLLG | 0.531 ± 0.008
WGGGGWRGGGAR | 0.747 ± 0.033
WGGGLGTAVVGV | 0.643 ± 0.021
WGGQRGWVEVWR | 0.683 ± 0.04
WGKGGWHRRWGC | 0.673 ± 0.0098
WGRRGSRGSWGA | 0.733 ± 0.028
WGVVGEWAGVGR | 0.747 ± 0.052
WGWGGHGIVRRE | 0.812 ± 0.14
WGYAFVGVVRGA | 0.661 ± 0.046
WGYEGGWGGHGT | 0.659 ± 0.025
WHRAGRSRMSWS | 0.777 ± 0.1
WIFRDHVLRRFP | 0.661 ± 0.024
WIISERDRTEQT | 0.733 ± 0.06
WIRTCMLIQGQT | 0.736 ± 0.021
WIRVYPDSSSPL | 0.8557 ± 0.002
WKEMRKKVGRGK | 0.696 ± 0.056
WKNTNSLRAPAL | 0.675 ± 0.016
WLAGKAGASHRG | 0.656 ± 0.0079

Sequence | protein stability index
WLAIFFFSLSPF | 0.525 ± 0.055
WLFAFLCSCFCV | 0.71 ± 0.093
WLGFHFLFLWKC | 0.587 ± 0.1
WLIKKIKTKQTR | 0.758 ± 0.074
WLLGLRPTVSKE | 0.756 ± 0.068
WLRRFIFGSVVN | 0.657 ± 0.015
WPPRPPRPSSTL | 0.724 ± 0.011
WPSCKVHSPSPS | 0.675 ± 0.016
WPWLHSVACLYS | 0.626 ± 0.09
WRAVVVSGTVAY | 0.578 ± 0.025
WRGGAWVRGCVL | 0.74 ± 0.04
WRGGWAETGGRE | 0.705 ± 0.013
WRRCSGVGVGSP | 0.663 ± 0.072
WRWCGLWDTRTY | 0.819 ± 0.0085
WSFMYLYFFDSW | 0.685 ± 0.086
WSGREGRGEWGW | 0.791 ± 0.024
WSIVVDDISWSV | 0.698 ± 0.013
WSLGPDVCGGVV | 0.708 ± 0.027
WSPGGGPLGLYE | 0.743 ± 0.018
WSRRGQRGKAWR | 0.733 ± 0.12
WSRSGGWEKYGV | 0.681 ± 0.024
